Data: US20100099619A1
Square brackets hold non-standard residues; d marks the D form. Ends that are not written are not given here. Ahx = NCCCCCC(=O)O

T1: neuropeptide Y1 receptor, P25929
T1 chain: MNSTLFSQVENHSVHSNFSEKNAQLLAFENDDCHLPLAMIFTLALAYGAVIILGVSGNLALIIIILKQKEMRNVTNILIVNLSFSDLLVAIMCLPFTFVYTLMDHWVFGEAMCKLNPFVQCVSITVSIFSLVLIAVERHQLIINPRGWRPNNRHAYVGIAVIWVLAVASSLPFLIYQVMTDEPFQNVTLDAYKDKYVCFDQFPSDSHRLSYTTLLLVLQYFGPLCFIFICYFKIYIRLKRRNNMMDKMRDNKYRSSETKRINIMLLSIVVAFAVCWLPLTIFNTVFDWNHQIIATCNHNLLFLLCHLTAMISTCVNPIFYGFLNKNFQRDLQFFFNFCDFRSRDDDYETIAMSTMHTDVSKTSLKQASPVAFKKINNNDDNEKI

T2: neuropeptide Y2 receptor, P49146
T2 chain: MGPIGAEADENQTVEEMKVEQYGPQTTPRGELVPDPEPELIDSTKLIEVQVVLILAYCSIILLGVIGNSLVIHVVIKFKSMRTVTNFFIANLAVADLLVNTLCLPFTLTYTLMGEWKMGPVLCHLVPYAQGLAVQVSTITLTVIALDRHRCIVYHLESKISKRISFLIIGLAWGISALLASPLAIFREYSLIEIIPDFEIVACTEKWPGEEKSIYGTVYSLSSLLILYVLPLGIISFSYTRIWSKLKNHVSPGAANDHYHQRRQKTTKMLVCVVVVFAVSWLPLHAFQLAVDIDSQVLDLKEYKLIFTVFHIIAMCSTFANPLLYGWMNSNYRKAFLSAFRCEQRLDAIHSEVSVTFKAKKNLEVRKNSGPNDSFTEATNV

T3: neuropeptide Y5 receptor (Homo sapiens (Human)), Q15761
T3 chain: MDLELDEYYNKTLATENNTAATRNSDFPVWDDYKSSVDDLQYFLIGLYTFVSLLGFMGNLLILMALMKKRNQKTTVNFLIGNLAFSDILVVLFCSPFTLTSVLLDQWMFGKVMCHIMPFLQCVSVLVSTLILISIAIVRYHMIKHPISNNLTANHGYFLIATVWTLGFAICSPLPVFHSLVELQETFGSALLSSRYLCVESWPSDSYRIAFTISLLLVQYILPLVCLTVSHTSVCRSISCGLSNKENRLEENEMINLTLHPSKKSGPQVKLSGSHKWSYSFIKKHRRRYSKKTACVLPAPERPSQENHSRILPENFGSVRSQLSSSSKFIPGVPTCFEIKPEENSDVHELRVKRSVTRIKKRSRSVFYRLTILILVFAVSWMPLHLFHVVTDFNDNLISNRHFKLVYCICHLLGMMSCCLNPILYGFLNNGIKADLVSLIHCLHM


What was measured:
neuropeptide Y4 receptor [1] = assay: displacement of [125I]-human PP, Y4-transfected CHO-K1 membranes
Chain of neuropeptide Y4 receptor (P50391 whole entry): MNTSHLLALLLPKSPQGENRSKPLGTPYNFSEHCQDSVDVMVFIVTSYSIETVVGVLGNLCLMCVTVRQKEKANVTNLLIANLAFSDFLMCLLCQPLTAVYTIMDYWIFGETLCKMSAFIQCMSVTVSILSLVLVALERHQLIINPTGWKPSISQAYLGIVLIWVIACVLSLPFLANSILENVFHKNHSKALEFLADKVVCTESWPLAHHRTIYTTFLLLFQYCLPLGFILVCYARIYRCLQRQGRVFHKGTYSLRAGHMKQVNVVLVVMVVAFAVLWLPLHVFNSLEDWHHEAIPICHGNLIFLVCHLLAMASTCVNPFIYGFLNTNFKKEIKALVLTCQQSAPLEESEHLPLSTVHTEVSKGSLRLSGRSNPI

[2] = biological target: T1, neuropeptide Y1 receptor, P25929; assay: displacement of [125I]-human PYY, SK-N-MC membranes
[3] = biological target: T2, neuropeptide Y2 receptor, P49146; assay: displacement of [125I]-human PYY, SK-N-BE membranes
neuropeptide Y5 receptor = assay: displacement of [125I]-human PYY, Y5-transfected CHO-K1 membranes
neuropeptide Y4 receptor [4] = assay: competition vs [125I]-hPP, Y4-transfected CHO-K1 membranes
[5] = biological target: T2, neuropeptide Y2 receptor, P49146; assay: competition vs [125I]-hPYY, SK-N-BE membranes
[6] = biological target: T3, neuropeptide Y5 receptor (Homo sapiens …); assay: competition vs [125I]-hPYY, Y5-transfected CHO-K1 membranes
[7] = biological target: T1, neuropeptide Y1 receptor, P25929; assay: competition vs [125I]-hPYY, SK-N-MC membranes
neuropeptide Y4 receptor [8] = assay: radioligand competition, [125I]-hPP, Y4/CHO-K1 membranes
[9] = biological target: T2, neuropeptide Y2 receptor, P49146; assay: radioligand competition, [125I]-hPYY, SK-N-BE membranes
[10] = biological target: T1, neuropeptide Y1 receptor, P25929; assay: radioligand competition, [125I]-hPYY, SK-N-MC membranes
[11] = biological target: T3, neuropeptide Y5 receptor (Homo sapiens …); assay: radioligand competition, [125I]-hPYY, Y5/CHO-K1 membranes

Row | Binder | Y4 RBA (neuropeptide Y4 receptor [8]) [nM] | Y2RBA [9] [nM] | Y1RBA [10] [nM] | Y5RBA [11] [nM] | also measured
1 | YPIAPEAPGEDASPEELAQYAADLRRYINMLTRQRY (modifications not checked) [SEQ ID NO: 476] | – | – | – | – | Y4 RBA (neuropeptide Y4 receptor [1]): 53 nM; Y1RBA [2]: 27 nM; Y2RBA [3]: 7.4 nM; Y5RBA (neuropeptide Y5 receptor): 15 nM
2 | IAPEAPGEDASPEELAQYAADLRRYINMLTRQRY (modifications not checked) [SEQ ID NO: 477] | – | – | – | – | Y4 RBA (neuropeptide Y4 receptor [1]): 164 nM; Y1RBA [2]: 265 nM; Y2RBA [3]: 4.4 nM; Y5RBA (neuropeptide Y5 receptor): 18 nM
3 | APLEPVYPGDNATPEQMAQYAADLRRYINMLTRPRY (modifications not checked) [PP (human pancreatic polypeptide)] | – | – | – | – | Y4 RBA (neuropeptide Y4 receptor [4]): 0.034 nM
4 | EELNRYYASLRHYLNLVTRQRY (modifications not checked) [SEQ ID NO: 177] | – | – | – | – | Y4 RBA (neuropeptide Y4 receptor [4]): 46 nM; Y2RBA [5]: 0.34 nM; Y5RBA [6]: 11 nM; Y1RBA [7]: 5.8 nM
5 | YYASLRHYLNLVTRQRY (modifications not checked) [SEQ ID NO: 178] | – | – | – | – | Y4 RBA (neuropeptide Y4 receptor [4]): 38 nM; Y2RBA [5]: 0.29 nM; Y5RBA [6]: 17 nM; Y1RBA [7]: 7.7 nM
6 | RHYLNLVTRQRY (modifications not checked) [SEQ ID NO: 179] | – | – | – | – | Y4 RBA (neuropeptide Y4 receptor [4]): 33 nM
7 | YPIK[Ahx]ELNRYYASLRHYLNLVTRQRY (ends and bridges not checked) [PYY(1-4)Aca(16-36)] | – | – | – | – | Y4 RBA (neuropeptide Y4 receptor [4]): 65 nM; Y2RBA [5]: 0.21 nM; Y5RBA [6]: 5.8 nM; Y1RBA [7]: 4.4 nM
8 | ASLRHYLNLVTRQRY (modifications not checked) [SEQ ID NO 202] | 23 | – | – | – | –
9 | ASLRHYLNLVTRQRY (modifications not checked) [SEQ ID NO 203] | 108 | – | – | – | –
10 | APLEPVYPGDNATPEQMNRYYASLRHFLNLVTRQRY (modifications not checked) [SEQ ID NO 288] | 11 | 0.35 | 1.8 | 1.1 | –
11 | APLEPVYPGDNATPEQMNRYYASLRHYLNLAPRQRY (modifications not checked) [SEQ ID NO 289] | 48 | – | – | 0.83 | –
12 | APLEPVYPGDNATPEQMNKYYASLRHYLNLVTRQRY (modifications not checked) [SEQ ID NO 293] | 0.87 | 0.18 | 0.82 | 0.48 | –
13 | APLEPVYPGDNATPEQLNRYYASLRHYLNLVTRQRY (modifications not checked) [SEQ ID NO 295] | 1 | 0.18 | 1 | 0.63 | –
14 | APLEPVYPGDNATPEELNRYYASLRHYLNLVTRQRY (modifications not checked) [SEQ ID NO 296] | 2.9 | 0.76 | 2.7 | 2.1 | –
15 | APLEPVYPGDNASPEELNRYYASLRHYLNLVTRQRY (modifications not checked) [SEQ ID NO 297] | 4 | 0.32 | 3.6 | 1.8 | –
16 | APLEPVYPGDNATPEQMNKYYASLRHYLNLVTRQRY (modifications not checked) [SEQ ID NO 306] | 1.2 | 0.16 | 0.6 | 0.27 | –
17 | APLEPVYPGDNATPEQMNRYYASLRAYLNLVTRQRY (modifications not checked) [SEQ ID NO 308] | 2.1 | 0.56 | 1 | 1.4 | –
18 | YPIKPEAPGEDASPEELAQYAADLRRYINMLTRPRY (modifications not checked) [SEQ ID NO 309] | 5.6 | 78 | 3.3 | 1.5 | –
19 | IKPEAPGEDASPEELAQYAADLRRYINMLTRPRY (modifications not checked) [SEQ ID NO 310] | 27 | 454 | 29 | 5.1 | –
20 | YPIKPEAPGEDASPEELNQYAADLRRYINMLTRQRY (modifications not checked) [SEQ ID NO 316] | 52 | 0.63 | 7.1 | 1.1 | –
21 | YPIKPEAPGEDASPEELNQYAASLRRYINMLTRQRY (modifications not checked) [SEQ ID NO 317] | 16 | 0.097 | 4.3 | 0.69 | –
22 | YAIKPEAPGEDASPEELAQYAADLRRYINMLTRQRY (modifications not checked) [SEQ ID NO 318] | 84 | 1.3 | 100 | 1.9 | –
23 | YPIKPEAPGEDASPEELAQYAADLKRYINMLTRQRY (modifications not checked) [SEQ ID NO 321] | 57 | 3.7 | 12 | 5.6 | –
24 | YPIRPEAPGEDASPEELAQYAADLRRYINMLTRQRY (modifications not checked) [SEQ ID NO 332] | 38 | 0.54 | 13 | 1 | –
25 | YPIKPEAGPEDASPEELAQYAADLRRYINMLTRQRY (modifications not checked) [SEQ ID NO 335] | 109 | 0.72 | 34 | 3.6 | –
26 | YPIKPEAPGEDASPQELAQYAADLRRYINMLTRQRY (modifications not checked) [SEQ ID NO 341] | 11 | 0.15 | 1.8 | 0.3 | –
27 | YPIKPEAPGEDASPDELAQYAADLRRYINMLTRQRY (modifications not checked) [SEQ ID NO 342] | 84 | 0.62 | 15 | 1.4 | –
28 | YPIKPEAPGEDASPEELAQYAAELRRYIQMLTRQRY (modifications not checked) [SEQ ID NO 347] | 740 | 18 | 35 | 51 | –
